Patent US20250346646A1, “COMPOUNDS USEFUL TO TREAT METABOLIC DISORDERS” (President and Fellows of Harvard College, priority 2016, published 2025)

Key:
[1] = molecular target: aP2 (Homo sapiens, UniProt P15090); assay: Paranaric acid (lipid) binding to aP2; conditions: vs IgG control antibody, over pH
Method: FIG. 10F is a line graph showing paranaric acid binding to aP2 (relative fluorescence) vs. pH in the presence of IgG control antibody (circles) or CA33 antibody (squares).
In further analysis, epitope identification based on hydrogen-deuterium exchange mass spectrometry experiments, for example, as described by Pandit et al. (2012) J. Mol. Recognit. […] Co-crystallization of the Fab fragments of CA33 and H3 with aP2 (FIG. 10D) was then conducted. […] Despite the partial blocking of H3 by CA33, we observed that there is in fact no direct overlap of their epitopes. Instead, the significant movement of the region around aP2 Phe58 may partially block binding of one antibody by the other in the competition experiments. In addition, the low affinity of the CA33 Fab can be explained by the crystal structure. Unusually, only one amino acid in the heavy chain of CA33 makes a contact with aP2, and the majority of the contacts are through the light chain (FIGS. 10D and 10E). In contrast, H3-aP2 contact is more conventional, with both Fab chains interacting with aP2. […] H3 does bind directly to the ‘lid’ but has limited activity. Binding of CA33 to lipid-bound aP2 or lipid-free aP2 was also examined using biochemical analysis (Biacore). CA33 binds to both lipid-bound aP2 and lipid-free aP2 with the following affinities: […]

[2] = molecular target: T1, Mouse aP2 (Mus musculus, UniProt P04117); assay: Biacore binding of CA33 to lipid-bound and lipid-free aP2
T1 construct: 10 His-tag (N, cleaved yes); TEV protease site (N, cleaved yes); made in house; host or cells: E. coli BL21DE3
T1 sequence (P04117 1-132): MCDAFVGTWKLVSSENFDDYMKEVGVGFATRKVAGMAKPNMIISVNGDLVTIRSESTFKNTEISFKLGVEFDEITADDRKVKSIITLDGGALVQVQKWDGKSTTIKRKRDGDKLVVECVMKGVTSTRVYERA
Method: The affinity of anti-aP2 binding to aP2 (recombinantly generated in E. coli as described below) was determined by biomolecular interaction analysis, using a Biacore T200 system (GE Healthcare). Affinipure F(ab′)2 fragment goat anti-mouse IgG, Fc fragment specific (Jackson ImmunoResearch Lab, Inc.) in 10 mM NaAc, pH 5 buffer was immobilized on a CM5 Sensor Chip via amine coupling chemistry to a capture level between 4500-6000 response units (RU) using HBS-EP+(GE Healthcare) as the running buffer. Anti-aP2 IgG was diluted to between 1-10 μg/ml in running buffer. A 60 s injection of anti-aP2 IgG at 10 μl/min was used for capture by the immobilized anti-mouse IgG, Fc then aP2 was titrated from 25 nM to 3.13 nM over the captured anti-aP2 for 180 s at 30 μl/min followed by 300 s dissociation. The surface was regenerated by 2×60 s 40 mM HCl and 1×30 s 5 mM NaOH at 10 μl/min. The data were analyzed using Biacore T200 evaluation software (version 1.0) using the 1:1 binding model with local Rmax. For CA33, 60 s injection of the antibody at 10 μl/min was used for capture by the immobilized anti-mouse IgG, Fc then aP2 was titrated from 40 μM to 0.625 μM over the captured anti-aP2 for 180 s at 30 μl/min followed by 300 s dissociation. The surface was regenerated by 1×60 s 40 mM HCl, 1×30 s 5 mM NaOH and 1×60 s 40 mM HCl at 10 μl/min. Steady state fitting was used to determine affinity values. […]

[3] = molecular target: T2, glucagon/aP2 complex in wild-type serum (Mus musculus, UniProt P04117); assay: Co-immunoprecipitation of glucagon and aP2 from serum; conditions: pre-incubation of wild-type serum with antibody
T2 construct: from tissue; host or cells: serum of wild-type mice
T2 sequence (P04117 1-132): T1 sequence (P04117 1-132)

[4] = system: HFD-induced obese aP2−/− mice; assay: CA33 treatment of HFD-induced obese aP2−/− mice; assay type: in vivo, mouse
Method: FIG. 11A is a bar graph showing fasting blood glucose (mg/dL) in HFD-induced obese aP2−/− mice before (open bars) and after CA33 antibody or vehicle treatment for three weeks (solid bars).
The test was performed after 2 weeks of vehicle (triangles) or CA33 antibody treatment (squares) in aP2−/− mice.
Animal care and experimental procedures were performed with approval from animal care committees of Harvard University. Male mice (leptin-deficient (ob/ob) and diet induced obese (DIO) mice with C57BL/6J background) were purchased from The Jackson Laboratory (Bar Harbor, ME) and kept on a 12-hour light/dark cycle. DIO mice with C57BL/6J background were maintained on high-fat diet (60% kcal fat, Research Diets, Inc., D12492i) for 12 to 15 weeks before starting treatment except in clamp studies, for which they were on HFD for 20 weeks. Leptin-deficient (ob/ob) mice were maintained on regular chow diet (RD, PicoLab 5058 Lab Diet). Animals used were 18 to 31 weeks of age for dietary models and 9 to 12 weeks of age for the ob/ob model. In all experiments, at least 7 mice in each group were used, unless otherwise stated in the text. The mice were treated with 150 μl PBS (vehicle) or 1.5 mg/mouse (˜33 mg/kg) anti-aP2 monoclonal antibody in 150 μl PBS by twice weekly subcutaneous injections for 3 to 5 weeks. Before and after the treatment, blood samples were collected from the tail after 6 hours of daytime food withdrawal. Body weights were measured weekly in the fed state. Blood glucose levels were measured weekly after 6 hours of food withdrawal or after 16 hours overnight fast. After 2 weeks of treatment, glucose tolerance tests were performed by intraperitoneal glucose injections (0.75 g/kg for DIO, 0.5 g/kg for ob/ob mice). After 3 weeks of treatment, insulin tolerance tests were performed in DIO mice by intraperitoneal insulin injections (0.75 IU/kg). After 5 weeks of treatment, hyperinsulinemic-euglycemic clamp experiments were performed in DIO mice as previously described (Furuhashi et al., (2007) Nature 447, 959-965; Maeda et al., (2005) Cell metabolism 1, 107-119). […]

Sequence of aP2 (P15090 whole entry): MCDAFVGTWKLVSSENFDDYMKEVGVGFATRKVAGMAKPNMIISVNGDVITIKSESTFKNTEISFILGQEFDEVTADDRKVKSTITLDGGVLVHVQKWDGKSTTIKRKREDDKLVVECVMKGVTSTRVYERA

- Effect on lipid (paranaric acid) binding to aP2 [1]: not substantially altered
- Kd ([2]; De-lipidated mouse aP2, Biacore): 4.7 µM
- Kd ([2]; Lipid-loaded mouse aP2, Biacore): 9.3 µM
- Co-immunoprecipitation of glucagon and aP2 [3]: prevents co-immunoprecipitation
B1: CA33: low-affinity anti-aP2 monoclonal antibody, rabbit-mouse hybrid, produced and purified by UCB; VL Seq. ID 28, VH Seq. ID 41 (antibody, V domains shown)
VH: QSVEESGGRLVTPGTPLTLTCTVSGFSLSTYYMSWVRQAPGKGLEWIGIIYPSGSTYCASWAKGRFTISKASTTVDLKITSPTTEDTATYFCARPDNDGTSGYLSGFGLWGQGTLVTVSS
VL: DVVMTQTPASVSEPVGGTVTIKCQASEDISRYLVWYQQKPGQPPKRLIYKASTLASGVPSRFKGSGSGTDFTLTISDLECDDAATYYCQCTYGTYAGSFFYSFGGGTEVVVE
modifications: Rabbit Ab 909 VH region; Rabbit Ab 909 VL-region
- Weight ([4]; aP2−/− mice fed a HFD): failed to induce any change
- Fasting glucose ([4]; aP2−/− mice fed a HFD, three weeks treatment): failed to induce any change
- Glucose tolerance (GTT) ([4]; obese aP2−/− mice, after 2 weeks of treatment): did not affect glucose tolerance
